This is an account of results in publication PMC12394453.

Where “and” joins values, the source holds several entries; their conditions need not be identical. Identical values can stand only once.

For this assay, the target named is HeV-G (wild-type Hendra virus attachment glycoprotein G, soluble recombinant) (Hendra virus) (UniProt O89343). Nature of the assay: SEC; oligomeric states of the purified G protein (Supplementary Fig. 7). Background: SEC sorts molecules by how far they enter the pores of the column.

Sequence of HeV-G (wild-type Hendra virus attachment glycoprotein G, soluble recombinant) (O89343 71-604 limits assumed): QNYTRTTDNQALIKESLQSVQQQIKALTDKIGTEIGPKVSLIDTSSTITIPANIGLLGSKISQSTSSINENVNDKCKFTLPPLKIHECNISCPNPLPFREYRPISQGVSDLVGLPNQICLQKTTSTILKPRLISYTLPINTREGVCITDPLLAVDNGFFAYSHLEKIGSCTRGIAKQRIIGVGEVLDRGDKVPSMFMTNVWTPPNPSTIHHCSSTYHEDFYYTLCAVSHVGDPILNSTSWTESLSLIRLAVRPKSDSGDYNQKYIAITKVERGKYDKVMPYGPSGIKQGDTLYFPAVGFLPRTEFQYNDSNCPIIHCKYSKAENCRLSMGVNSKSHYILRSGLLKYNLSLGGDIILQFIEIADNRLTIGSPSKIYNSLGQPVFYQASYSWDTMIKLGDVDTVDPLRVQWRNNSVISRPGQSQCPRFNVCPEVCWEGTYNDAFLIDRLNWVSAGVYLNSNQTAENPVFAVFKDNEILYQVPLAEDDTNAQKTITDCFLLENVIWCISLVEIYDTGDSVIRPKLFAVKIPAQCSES

As a reminder, the stoichiometry N is a count of units in the complex or per binding partner. As to “HeV-G (wild-type Hendra virus attachment glycoprotein G, soluble recombinant) (from UniProt O89343 1-604) (natural protein)”, the stoichiometry N was 4 and 2.
